Experimental data as given in patent publication US20190275101.
Substitutions are numbered along the chain they refer to. Numbers in names are those of the source.

T1: Fluorogenic peptide Glu(EDANS)-GDYELQGPEDLA-Lys(Dabcyl), p48/p41 cleavage site of the HOV polyprotein
T1 chain: EGDYELQGPEDLAK

B1: Houston virus protease (HOV Pro), GII.4 norovirus protease, wild-type (protein)
chain: APPSIWSRIVNFGSGWGFWVSPSLFITSTHVIPQGAKEFFGVPIKQIQVHKSGEFCRLRFPKPIRTDVTGMILEEGAPEGTVVTLLIKRSTGELMPLAARMGTHATMKIQGRTVGGQMGMLLTGSNAKSMDLGTTPGDCGCPYIYKRGNDYVVIGVHTAAARGGNTVICATQGSEGEATLE
B2: HOV Pro R112A mutant (protein)
chain: B1 chain with R112A

Target: T1, Fluorogenic peptide …

Row | Protein | FRET proteolytic activity at pH 8, 6.5 and 5 | kcat/Km, FRET assay at pH 8 | FRET proteolytic activity at pH 6.5
1 | B1 | while HOV Pro was active at pH 8, it showed no activity at pH 6.5 and pH 5 | kcat/Km=843.7 M^-1s^-1 | 
2 | B2 |  | kcat/Km=1215 M^-1s^-1 | Unlike the wild-type HOV Pro, R112A mutant was active at pH 6.5
